Reference: patent US20240190962A1 (IMMUNOWAKE, published 2024)
Residue numbers refer to the chain shown, from its start. Numbers in names are those of the source.

What was measured:
human PD-1 [1] = target: T1, human PD-1 (human, UniProt Q15116 25-167, limits assumed); assay: PD-L2-Fc format, calibrated on PD-L2(wt)-Fc
T1 construct: also called hPD-1

mouse PD-1 [2] = target: T2, mouse PD-1 (mouse, UniProt Q02242 25-167, limits assumed); assay: PD-L2-Fc format, calibrated on PD-L2(wt)-Fc
T2 construct: also called mPD-1
T2 sequence (looked up): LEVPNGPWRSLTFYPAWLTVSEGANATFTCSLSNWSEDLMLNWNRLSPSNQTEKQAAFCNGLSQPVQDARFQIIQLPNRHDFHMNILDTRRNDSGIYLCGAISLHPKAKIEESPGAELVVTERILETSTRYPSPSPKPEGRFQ

CD4 on CD4+ T cells = target: T3, CD4 on CD4+ T cells (UniProt P01730 26-458, limits assumed); assay: FACS
T3 construct: whole, on cells

[3] = target: human IL-12 receptor complex (IL-12Rβ1, IL-12Rβ2) (human, UniProt P42701 24-662; Q99665 24-862); assay: cell-based or functional assay
human PD-1 [4] = target: T1, human PD-1; assay: PD-L1-Fc format, calibrated on PD-L1(wt)-Fc
mouse PD-1 [5] = target: T2, mouse PD-1; assay: PD-L1-Fc format, calibrated on PD-L1(wt)-Fc

Chain of human IL-12 receptor complex (IL-12Rβ1, IL-12Rβ2) (Q99665 24-862, chain 2 of 2, other chains not shown): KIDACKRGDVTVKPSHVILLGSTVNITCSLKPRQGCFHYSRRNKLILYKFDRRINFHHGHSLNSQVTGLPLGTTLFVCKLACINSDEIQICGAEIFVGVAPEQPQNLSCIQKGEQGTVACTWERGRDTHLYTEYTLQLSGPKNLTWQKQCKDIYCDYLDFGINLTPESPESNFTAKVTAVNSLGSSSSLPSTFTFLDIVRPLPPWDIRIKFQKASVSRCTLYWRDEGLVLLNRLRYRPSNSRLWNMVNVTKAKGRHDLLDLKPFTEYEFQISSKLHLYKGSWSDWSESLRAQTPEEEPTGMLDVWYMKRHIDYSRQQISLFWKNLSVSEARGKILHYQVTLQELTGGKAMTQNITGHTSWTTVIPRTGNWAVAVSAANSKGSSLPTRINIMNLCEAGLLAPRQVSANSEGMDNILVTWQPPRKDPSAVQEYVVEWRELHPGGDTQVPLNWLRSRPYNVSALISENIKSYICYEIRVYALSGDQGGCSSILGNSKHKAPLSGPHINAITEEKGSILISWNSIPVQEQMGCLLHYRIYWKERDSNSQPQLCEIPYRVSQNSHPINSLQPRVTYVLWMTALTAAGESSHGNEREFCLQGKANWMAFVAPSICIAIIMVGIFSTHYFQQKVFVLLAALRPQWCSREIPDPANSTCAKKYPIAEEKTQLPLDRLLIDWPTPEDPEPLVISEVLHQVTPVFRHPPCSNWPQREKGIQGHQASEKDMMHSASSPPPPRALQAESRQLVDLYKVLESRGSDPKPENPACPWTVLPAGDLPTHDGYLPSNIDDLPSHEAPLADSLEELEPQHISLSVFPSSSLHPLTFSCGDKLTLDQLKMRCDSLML
T1 sequence (Q15116 25-167 limits assumed): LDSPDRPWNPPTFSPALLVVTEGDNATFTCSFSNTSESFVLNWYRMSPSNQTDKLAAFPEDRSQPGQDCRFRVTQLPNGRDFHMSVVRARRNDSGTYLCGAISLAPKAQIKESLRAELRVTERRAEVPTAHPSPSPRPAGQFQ

B1: PD-L2(mut2)-Fc (Fc fusion)
chain 1: LFTVTVPKELYIIEHGSNVTLECNFDTGSHVNLGAITAVLQKVENDTSPHRERATLLEEQLPLGKASFHIPQVQVRDEGQYQCIIIYGVAWDYKYLTLKVKASYRKINTHILKVPETDEVELTCQATGYPLAEVSWPNVSVPANTSHSRTPEGLYQVTSVLRLKPPPGRNFSCVFWNTHVRELTLASIDLQSQMEPRTHPTGGGGSGGGDKTHTCPPCPAPEDEGGPSVFLFPPKPKDTLMISRTPEVTCVVVDVSHEDPEVKFNWYVDGVEVHNAKTKPREEQYNSTYRVVSVLTVLHQDWLNGKEYKCKVSNKALPAPIEKTISKAKGQPREPQVYVYPPSREEMTKNQVSLTCLVKGFYPSDIAVEWESNGQPENNYKTTPPVLDEDGSFALVSKLTVDKSRWQQGNVFSCSVMHEALHNHYTQKSLSLSPGK
chain 2: B1 chain 1 with D223K, E224K, Y340L, T355L, N379R, K381M, T383W, E389S, A394F, V396Y
notes: also called PD-L2(S58V)
- Kd (human PD-1 [1]): 350 nM
- Kd (mouse PD-1 [2]): 230 nM

B2: PD-L2(mut4)-Fc (Fc fusion)
chain 1: B1 chain 1 with T37V, Q41L
chain 2: LFTVTVPKELYIIEHGSNVTLECNFDTGSHVNLGAIVAVLLKVENDTSPHRERATLLEEQLPLGKASFHIPQVQVRDEGQYQCIIIYGVAWDYKYLTLKVKASYRKINTHILKVPETDEVELTCQATGYPLAEVSWPNVSVPANTSHSRTPEGLYQVTSVLRLKPPPGRNFSCVFWNTHVRELTLASIDLQSQMEPRTHPTGGGGSGGGDKTHTCPPCPAPEKKGGPSVFLFPPKPKDTLMISRTPEVTCVVVDVSHEDPEVKFNWYVDGVEVHNAKTKPREEQYNSTYRVVSVLTVLHQDWLNGKEYKCKVSNKALPAPIEKTISKAKGQPREPQVYVLPPSREEMTKNQVSLLCLVKGFYPSDIAVEWESNGQPENRYMTWPPVLDSDGSFFLYSKLTVDKSRWQQGNVFSCSVMHEALHNHYTQKSLSLSPGK
notes: also called PD-L2(T56V/S58V/Q60L)
- Kd (human PD-1 [1]): 255 nM
- Kd (mouse PD-1 [2]): 220 nM

B3: Fab-IL-12(WT)-Fc-CD8 Ab (other)
light: DIQMTQTTSSLSASLGDRVTISCRASQDINNYLNWYQQKSDGTIKLLIYYTSRSYSGVPSRFSGSGSGTDYSLTISNRRQEDIATYFCQQGKTLPWTFGGGTKLEIKRTVAAPSVFIFPPSDEQLKSGTASVVCLLNNFYPREAKVQWKVDNALQSGNSQESVTEQDSKDSTYSLSSTLTLSKADYEKHKVYACEVTHQGLSSPVTKSFNRGEC
heavy 1: EVQLQQSGPELVKPGASVKMSCKASGYTFTDYYMKWVKQSHGKSLEWIGHINPNNDDTFYTQKFKGRATLTVDKSSSTAYMQLNSLTSEDSAVYYCVRDDYDGGWFAYWGQGTLVTVSSASTKGPSVFPLAPSSKSTSGGTAALGCLVKDYFPEPVTVSWNSGALTSGVHTFPAVLQSSGLYSLSSVVTVPSSSLGTQTYICNVNHKPSNTKVDKKVEPKSCDKTHTCPPCPAPEKKGGPSVFLFPPKPKDTLMISRTPEVTCVVVDVSHEDPEVKFNWYVDGVEVHNAKTKPREEQYNSTYRVVSVLTVLHQDWLNGKEYKCKVSNKALPAPIEKTISKAKGQPREPQVYVLPPSREEMTKNQVSLLCLVKGFYPSDIAVEWESNGQPENRYMTWPPVLDSDGSFFLYSKLTVDKSRWQQGNVFSCSVMHEALHNHYTQKSLSLSPGK
heavy 2: EVQLQQSGPELVKPGASVKMSCKASGYTFTDYYMKWVKQSHGKSLEWIGHINPNNDDTFYTQKFKGRATLTVDKSSSTAYMQLNSLTSEDSAVYYCVRDDYDGGWFAYWGQGTLVTVSSASTKGPSVFPLAPSSKSTSGGTAALGCLVKDYFPEPVTVSWNSGALTSGVHTFPAVLQSSGLYSLSSVVTVPSSSLGTQTYICNVNHKPSNTKVDKKVEPKSCDKPGSGIWELKKDVYVVELDWYPDAPGEMVVLTCDTPEEDGITWTLDQSSEVLGSGKTLTIQVKEFGDAGQYTCHKGGEVLSHSLLLLHKKEDGIWSTDILKDQKEPKNKTFLRCEAKNYSGRFTCWWLTTISTDLTFSVKSSRGSSDPQGVTCGAATLSAERVRGDNKEYEYSVECQEDSACPAAEESLPIEVMVDAVHKLKYENYTSSFFIRDIIKPDPPKNLQLKPLKNSRQVEVSWEYPDTWSTPHSYFSLTFCVQVQGKSKREKKDRVFTDKTSATVICRKNASISVRAQDRYYSSSWSEWASVPCSGGGGSGGGGSGGGGSGGGGSGRNLPVATPDPGMFPCLHHSQNLLRAVSNMLQKARQTLEFYPCTSEEIDHEDITKDKTSTVEACLPLELTKNESCLNSRETSFITNGSCLASRKTSFMMALCLSSIYEDLKMYQVEFKTMNAKLLMDPKRQIFLDQNMLAVIDELMQALNFNSETVPQKSSLEEPDFYKTKIKLCILLHAFRIRAVTIDRVMSYLNASDKTHTCPPCPAPEDEGGPSVFLFPPKPKDTLMISRTPEVTCVVVDVSHEDPEVKFNWYVDGVEVHNAKTKPREEQYNSTYRVVSVLTVLHQDWLNGKEYKCKVSNKALPAPIEKTISKAKGQPREPQVYVYPPSREEMTKNQVSLTCLVKGFYPSDIAVEWESNGQPENNYKTTPPVLDEDGSFALVSKLTVDKSRWQQGNVFSCSVMHEALHNHYTQKSLSLSPGK
notes: copies: 2 + 1 + 1
- binding result (CD4 on CD4+ T cells): no binding
- IL-12 biological activity (IFN-γ release), CD4+ T cells [3]: 21%
- IL-12 biological activity (IFN-γ release), CD8+ T cells [3]: 56%

B4: Fab-IL-12(E59A)-Fc-CD8 Ab (other)
light: B3 light
heavy 1: B3 heavy 1
heavy 2: B3 heavy 2 with E287A
notes: copies: 2 + 1 + 1
- binding result (CD4 on CD4+ T cells): no binding
- IL-12 biological activity (IFN-γ release), CD4+ T cells [3]: 2.1%
- IL-12 biological activity (IFN-γ release), CD8+ T cells [3]: 24.2%

B5: Fab-IL-12(F60A)-Fc-CD8 Ab (other)
light: B3 light
heavy 1: B3 heavy 1
heavy 2: B3 heavy 2 with F288A
notes: copies: 2 + 1 + 1
- binding result (CD4 on CD4+ T cells): no binding
- IL-12 biological activity (IFN-γ release), CD4+ T cells [3]: 1.2%
- IL-12 biological activity (IFN-γ release), CD8+ T cells [3]: 21.9%

B6: Fab-IL-12(E59A/F60A)-Fc-CD8 Ab (other)
light: B3 light
heavy 1: B3 heavy 1
heavy 2: B3 heavy 2 with E287A, F288A
- binding result (CD4 on CD4+ T cells): no binding
- IL-12 biological activity (IFN-γ release), CD4+ T cells [3]: 0%
- IL-12 biological activity (IFN-γ release), CD8+ T cells [3]: 11%

B7: PD-L1(mut7)-Fc (Fc fusion)
chain 1: FTVTVPKDLYVVEYGSNMTIECKFPVEKQLDLAALQVYWMMEDKNIIQFVHGEEDLKVQHSSYRQRARLLKDQLSLGNAALQITDVKLQDAGVYTCLIAYGGADYKRITVKVNAPYNKINQRILVVDPVTSEHELTCQAEGYPKAEVIWTSSDHQVLSGKTTTTNSKREEKLFNVTSTLRINTTTNEIFYCTFRRLDPEENHTAELVIPELPLAHPPNERGGGGSGGGDKTHTCPPCPAPEDEGGPSVFLFPPKPKDTLMISRTPEVTCVVVDVSHEDPEVKFNWYVDGVEVHNAKTKPREEQYNSTYRVVSVLTVLHQDWLNGKEYKCKVSNKALPAPIEKTISKAKGQPREPQVYVYPPSREEMTKNQVSLTCLVKGFYPSDIAVEWESNGQPENNYKTTPPVLDEDGSFALVSKLTVDKSRWQQGNVFSCSVMHEALHNHYTQKSLSLSPGK
chain 2: B7 chain 1 with D242K, E243K, Y359L, T374L, N398R, K400M, T402W, E408S, A413F, V415Y
notes: also called PD-L1(I54Q/E58M/R113T/M115L/S117A)
- Kd (human PD-1 [4]): 98 nM
- Kd (mouse PD-1 [5]): 110 nM
